# In publication PMC6433120 (Nature, 2018):
# T1: CC-SAM domain of murine KSR1 (mouse, UniProt Q61097 25-170)
# T1 sequence (looked up): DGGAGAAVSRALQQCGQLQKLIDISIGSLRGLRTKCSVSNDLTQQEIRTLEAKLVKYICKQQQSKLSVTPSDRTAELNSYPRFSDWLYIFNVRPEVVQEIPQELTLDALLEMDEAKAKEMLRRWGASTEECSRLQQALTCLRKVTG
# Biological target: T1, CC-SAM domain of murine KSR1
# Experiment: NMR titration
binder,measurement,value
"BRS domain of human BRAF (domain or fragment, UniProt P15056 36-114, looked up) SSAADPAIPEEVWNIKQMIKLTQEHIEALLDKFGGEHNPPSIYLEAYEEYTSKLDALQQREQQLLESLGNGTDFSVSSS",binding result,binds
